22 sequences from the DeepSol protein solubility set can be followed below.

The data set is described as follows: soluble on expression in E. coli; label from the status in PepcDB or PDB records.
Regarding “MRIHAFHHLYQYRLERSTKPFLARGGKIKRCLYCLVELTHCLCAHQPDIESQVAVLLIVSENEVFKPSNTGRLIADTVKETYVYQWSRTEPNPEMLALLSNPAYYPVLIFPAETEEDKTRVLSPIPTEFAGKKPLLVLIDGSWREAKRIFRKSPYLASLPLVSVEPERLSQYIMRKSENEQHLATAEVASLVLDMFGDRHSASTLSLWFEAFKETYLTCKSRNKPSITKPALQRWIAHQQNANCLLEHHHHHH”, the “soluble on expression in E. coli” value is reported as “not soluble”.

Take “GGSGSDIEAYFERIGYKNSRNKLDLETLTDILEHQIRAVPFENLNMHCGQAMELGLEAIFDHIVRRNRGGWCLQVNQLLYWALTTIGFQTTMLGGYFYIPPVNKYSTGMVHLLLQVTIDGRNYIVDAGSGSSSQMWQPLELISGKDQPQVPCIFCLTEERGIWYLDQIRREQYITNKEFLNSHLLPKKKHQKIYLFTLEPRTIEDFESMNTYLQTSPTSSFITTSFCSLQTPEGVYCLVGFILTYRKFNYKDNTDLVEFKTLTEEEVEEVLKNIFKISLGRNLVPKPGDGSLTI”: the “soluble on expression in E. coli” value is given as “soluble”.

For “MGSDKIHHHHHHMNIIICDDRIDDRKNLSDLLSDYGEKKNYEFTITEYDSGEQLCEEQSALEACQLLFLDINMQGMDGLKTAMRIKEKYPKLPVVLVTAYMNYALDGYKVKASRFLLKDNLADTIEECMDDLIAEINKNRRILEFRFVEGTIKLYADDIIYIETELHKNVFYTEKGTFQIYKKLDELENEFKDMGFVRAHLSFLVNMRYITKISGYVMTLTTGKKIPVPKARYAQVKREYMLYKGEE”, the “soluble on expression in E. coli” value is on record as “not soluble”.

For the sequence “MGSDKIHHHHHHMSPLEMALLVHRGEFHLRELEPELPLEKFLKNADPKKTRKFLEKCGKEELERQKELIRKHNVKLVSFWEDDYPQHLREIRYPPAVLFVRGDAELLKEKCVGVVGTRRPTSYGVNVTKRFVKLLSEYFVIVSGMAFGIDSVAHKEALSSGGKTVAVLGTGVDVVYPRSNERLFHEIVKNGCVVSEYPMGTRARKHHFPARNRIIAGLSDAIIVTEAPIKSGALITVKFALESGRDVFAVPGDIDRKTSEGTNYLIKSGAYPLTDEEDLETHFGIRRIASPSLDDDKKKIYDLLRSSPKTVDELVEELGWSVSEVLRVISEMELMGMIWFDGGAYRLLG”, the “soluble on expression in E. coli” value was “not soluble”.

Take “MGSDKIHHHHHHMGSGSVIWRLLPPAQGDPTTELAAGAAMLAGLKETNCPAIRWYAAGSRPALVIGSGQKLSDVDHTALRQQGVTLHRRSSGGTAVLFVPGLLMQDIALPLDHPLYHPDVSESYRWLGDVWQATLAQFGIHTSLIDIAAARADRQTLDPLIARACFGGQSPYEVLVAGRKLVGFAQIRRREGVLFQVGLYTHWPGRQLATLLAMNEAERTIFGERLADRVTDLVTVCESPPDIHQIAAAFAMVLRQRYEVSITAADWTEAEREAMIAAQARFAPLRLEG”: the “soluble on expression in E. coli” value is reported as “not soluble”.

In the case of “MSLALVVQKYGGSSVADAERIRRVAERIVATKKQGNDVVVVVSAMGDTTDDLLDLAQQVCPAPPPRELDMLLTAGERISNALVAMAIESLGAHARSFTGSQAGVITTGTHGNAKIIDVTPGRLQTALEEGRVVLVAGFQGVSQDTKDVTTLGRGGSDTTAVAMAAALGADVCEIYTDVDGIFSADPRIVRNARKLDTVTFEEMLEMAACGAKVLMLRCVEYARRHNIPVHVRSSYSDRPGTVVVGSIKDVPMEDPILTGVAHDRSEAKVTIVGLPDIPGYAAKVFRAVARRRRQHRHGAAERLQGRGRQDRHHLHLLPQTSGPPPWKNWTRSETRSASTQLLYDDHIGKVSLIGAGMRSHPGVTATFCEALAAVGVNIELISTSEDQRSRCCAATPNWTRPWSRCMKRSGSAATRRPRCTRGRDGRWACQEGHHHHHH”, the “soluble on expression in E. coli” value is on record as “not soluble”.

Consider “MENGEAKQSVPLLTPYKMGRFNLSHRVVLAPLTRQRSYGNVPQPHAAIYYSQRTTPGGFLITEATGVSDTAQGYQDTPGIWTKEHVEAWKPIVDAVHAKGGIFFCQIWHVGRVSNSGFQPNGKAPISCSDKPLMPQIRSNGIDEALFTPPRRLGIEEIPGIVNDFRLAARNAMEAGFDGVEIHGANGYLIDQFMKDTVNDRTDEYGGSLQNRCKFPLEIVDAVAKEIGPDRVGIRLSPFADYMESGDTNPGALGLYMAESLNKYGILYCHVIEARMKTMGEVHACPHTLMPMRKAFKGTFISAGGFTREDGNEAVSKGRTDLVAYGRWFLANPDLPKRFQVDAPLNKYDRPTFYTSDPVVGYTDYPFLESTA”, for which the “soluble on expression in E. coli” value is on record as “soluble”.

Turning to “MASGDFRLCDVVLDDSIGRSTPDVEHERAVAIFDLIEENTFEPAGHDGGPYRLHISLVDAKLVFAIKTEDDKDVSTHILSLTPFRRIIKDYFLICESYYEAIRSSTPSQIEAIDMGRRGIHNDGSQTLMDRLSGKIKVDFDTARRLFTLVCVLYWRG”, the “soluble on expression in E. coli” value was “not soluble”.

“PDIDGGILFLEDVGEQPYRIERMLNTLYLSGILKKQRAIVFGNFRMEKIRDVYDPSYDFSAVANHVSRTAKIPVLTGFPFGHIADKITFPLGAHARIRMNGNSGYSVAFEGYPTLDASALTLDTLLPPPDLPIFPESGVADISE”: the “soluble on expression in E. coli” value was “not soluble”.

On to “SKKVYAFDVQEQALGKTSQRLSDLGIENTELILDGHENLDHYVREPIRAAIFNLGYLPSADKSVITKPHTTLEAIEKILDRLEVGGRLAIMIYYGHDGGDMEKDAVLEYVIGLDQRVFTAMLYQPLNQINTPPFLVMLEKLQ”, for which the “soluble on expression in E. coli” value was “not soluble”.

For “MGSDKIHHHHHHMKGFLQTVTGPVAHTDMGLTLPHEHLFNDLSSVVDEPHYAFSQQLVGKKVSADLQWGLKHDPYCCADNMDRKEIDDVIFEINNFMSLGGRTIVDATGSESIGRDASALREVALKTGLNIVASSGPYLEKFESTRIHKPVELLASLIDKELNQGIGETDIRAGMIGEIGVSPAFTQAERNSLRAASLAQCNNPHTAMNIHMPGWLRLGDEVLDIVLEEMNVSPAKVSLAHSDPSGKDVVYQRKMLDRGVWLEFDMIGLDITFPKEGVAPGVQETADAVANLIALGYADQIVLSHDVFLKQMWAKNGGNGWGFVPNVFLAYLAARGVDNDTLRKLCIDNPARLLTA”, the “soluble on expression in E. coli” value is listed as “not soluble”.

On to “MGSDKIHHHHHHMALKKICLENFTVFDKMEIEFCDGVNVLIGENGTGKTHIMKLLYAACQSAHASKKVISFPQKIVQVFKPDHANISRLLSRKAGNGSAKVHVISGNNTLKTSFNLKTKNWDAEVVGAQAWEKQLSNLTSTFIPAKEILSNSKNLVNAINVGNVDFDDTYKDIISVASVDINRGPNNVQKEKYLQILQDITDGKVSYENEEFYLLPGNQAKLEFQLVAEGMRKIALLWQLIKNGTLEQGTVLFWDEPEANINPKHIPALVEVLLNLQGDGVQIFIATHDYVLAKYLEIRMADANKIRFHSLYKKEGRVEVESNHNFKDLVNNSIAEAYNKLLDEVFEQTTKG”, for which the “soluble on expression in E. coli” value is recorded as “not soluble”.

With “MEAPLYPDLPPDLCAPRGGQPAFWVGPRHLAGDDGRLYDVVADALAGLGWTSLTIVRGRHEPDEEPEDRQVLRSTVLHISPDALRWAQWCAADEPFHLGGLPIAWQISVRAEVSSPLAQWSAYFTRDVPGEAVVDFLVALDASNQPAVSLAGAELVLDAVAAHGWFRDIDQPEAVATDPAFTSHISLGEVPPLIQDGDLRVLSAEDDETGPDGWQAWAEPVLGAPLLWVASFAASVPHDLVAAFAASLSSTAPVLRRVLPEATHERLLRAPAILEHHHHHH”, the “soluble on expression in E. coli” value is reported as “not soluble”.

With “MAHHHHHHMADYNAAGADTAVVDDNVPPGITTKQDEIIQYVAKYVVASCDGARYQDKVRTRTKHNPYFDFLNAKHPYHQYYQYLLESYRHWMRNSEAVGAGTWGGGVDATQGQGQQQQWNEEDYYQYYGAYAGQASGIEFQGNAAGQLG”, the “soluble on expression in E. coli” value is listed as “not soluble”.

For “PDDVSVLAANGEKAKLSGGFFASEKALTLPDGVNQVVFRYAPYFNQGNDRLSVESDVIVARFDTANAELTIEVPKYRNMRDAEENIKDLDWKLVDGSGKAVAVDQDKLIKPGMQIGRDYVREIEDYNR”, the “soluble on expression in E. coli” value is on record as “not soluble”.

Turning to “MAGDPMSMHPALKYIQGYPQHIVEQVAQLIANDKLIPWFEQRYPERHDIQSEKALFDFTMALKNQYMKKTAPLSKVVYDGKIHLINNALGLHSYVSRVHGNKLKAKNEIRIANVFKQAPEPLLRMLVVHELAHLKEKEHNKAFYQLCCHMEPNYHQLELDARLYMMVLELKAGKALEHHHHHH”, the “soluble on expression in E. coli” value is “not soluble”.

On to “MPVFKRYMRSPRLKAKHVMSTPPVTIEVGRSIAEAARLMAERGVGSLIVVDKQGLVKGILTERDIINSLASGKACAEGKVEDIMSRNPIVASPDDDLEIIIEKMRDMNIRHIPVIDEDGRPLGMISVRDIIDLGVSALKLFVE”, for which the “soluble on expression in E. coli” value was “soluble”.

With “MAHHHHHHMYVRSISKELTKRMYNPSGHRIMMMDLKNKTTNNILNSRRYIVSYTKVHRTHYLEDYYTNPEIATNMISPMSEYIWWSWLLLQVN”, the “soluble on expression in E. coli” value is “not soluble”.

Regarding “MGSDKIHHHHHHMDDHGRSRPTQPTLYVLDTNVLIHDPNALLNFQEHRVAIPMTVLEELDKLKTGKHTIAAECRQAIRLIDQVLGEATPEQVEGGVPIQRGKNGPSGSLSILMSKRAEPITWLPEHLNDNKIINQLVELKSRHSGVRVVLVTKDINMRLKARACGVDAEDYHTDQLIDDVALLSRGYHSLAGSFWDRVSKVETRQDHGRTWHRVQLTDNLPAVHINEFIVDEQGFVGWIKGIQQDELTILDLHQEPLLHQEAWGLRPRDVYQSLALYALLDPDIHLVNLSGAAGSGKTILALAAAIEQTMVSKRYRRIIATRSVQGLDEDIGFLPGTEAEKMEPWLGAITDNLEALHMDDECTHGSVDYILSKVPLQFKSLNYIRGRSFQQSLILIDECQNLTPHQMKTIITRAGSGSKVICLGNLAQIDTPYLSATSSGLTYLTERFKDFPHGVHVTLQGVPRSVLAEYAEAHM”, the “soluble on expression in E. coli” value was “not soluble”.

On to “MRTHTGKIPDHFVPRISMTEEQRRVVFMLNSLLLDYPEEGFVDKLNAVEAQLDVLPLPVAAHVVEFLDAARVAGLRAMQEAYVETFDQRRRCSLFLTYYAVGDTRQRGTAILTFRQTLQQLGFESERDELPDHLCVVLEAAALADSSLFDAATQVLSAHRDGIEVLRAALDNLDSPYRYLIMSLCQALPEIDEETANSYMELIRSGPPAEMVGIGTPLPFPTSQPDIH”, for which the “soluble on expression in E. coli” value is “not soluble”.

Regarding “QERFVHVHKMITTGTIEEKIDVMLESKQTLNDQIIQSENWITELSTQELEEL”, the “soluble on expression in E. coli” value is “soluble”.

With “MLRKEEILERTSNGLSVFKHYVPGNWRIGRNFLNPLYEDNKASCNIYFDRRSGIYKMKDFGNDNYSGDCFFFVGQLKGLDCNNSMDFVEILETIDRDLGLGLATGNPIPVTRNSCRVVDNILEETPEKESKPYQFREQKFPLAELMYWQQYGITPEILELYKVCSLRDFQSVTADGTQFTYTSSVTEPMYGYKSKRYIKLYRPFSKTRFLYGGNFGDNYCFGLEQLPAKGDTLFITGGEKDVMSLAAHGFHAICFNSETVTVPPTLIYKLTFRFKHIILLYDTDKTGKESARKQEKQLEEFSVKRLLLPLSGTKEEKDISDYFKAGNTREDFLKLFIEFLDNLYSDTLIMLKSCEIDFNNPPAKAQVIISAGDVPLGTQGNLFGITGGEGTGKSNYIAAMLAGCICQPDKEVDTLGIQITANSKRKAVLLYDTEQSEVQLFKNVSNLLARAKQPDKPEELKAFCLTGMSRKERLHAIVQSMDKFYYQYGGIQLVVIDGIADLVKSANDEAESVAVIDELYRLAGIYNTCILCVLHFVPNGLKLRGHLGSELQRKAATILSIEKDEEPTQSVVKALKVRDGSPLDVPLMLFAWDKAAGMHLYKGEKPREEKEKRKEKELVCVARDIFGRQTHITYIDLCEQVAAGFGRERTYCQKLCSFHAGTGYYH”, the “soluble on expression in E. coli” value is “not soluble”.
